The chains are these.
B1: T0263018B11 G26E (VHH, name in Kabat numbering)
VHH: EVQLVESGGGVVQPGGSLRLSCAASEFTFSSYAMYWVRQAPGKGLEWVSAISSGGGSTDYADSVKGRFTISRDNSKNTLYLQMNSLRPEDTALYYCAADTLYTSLTWYSYWGQGTLVTVSS
notes: FLAG3-His6 tagged
B2: T0263018B11 S31P (VHH, name in Kabat numbering)
VHH: B1 VHH with E26G, S31P
notes: FLAG3-His6 tagged
B3: T0263018B11 G26N (VHH, name in Kabat numbering)
VHH: B1 VHH with E26N
notes: FLAG3-His6 tagged
B4: T0263018B11 S30E (VHH, name in Kabat numbering)
VHH: B1 VHH with E26G, S30E
notes: FLAG3-His6 tagged
B5: T0263018B11 S30T (VHH, name in Kabat numbering)
VHH: B1 VHH with E26G, S30T
notes: FLAG3-His6 tagged
B6: T0263018B11 S30N (VHH, name in Kabat numbering)
VHH: B1 VHH with E26G, S30N
notes: FLAG3-His6 tagged
B7: T0263018B11 L100aM (VHH, name in Kabat numbering)
VHH: B1 VHH with E26G, L105M
notes: FLAG3-His6 tagged
B8: T0263018B11 G26Q (VHH, name in Kabat numbering)
VHH: B1 VHH with E26Q
notes: FLAG3-His6 tagged
B9: T0263018B11 S31T (VHH, name in Kabat numbering)
VHH: B1 VHH with E26G, S31T
notes: FLAG3-His6 tagged
B10: T0263018B11 G54E (VHH, name in Kabat numbering)
VHH: B1 VHH with E26G, G55E
notes: FLAG3-His6 tagged
B11: T0263018B11 G54L (VHH, name in Kabat numbering)
VHH: B1 VHH with E26G, G55L
notes: FLAG3-His6 tagged
B12: T0263018B11 S30Q (VHH, name in Kabat numbering)
VHH: B1 VHH with E26G, S30Q
notes: FLAG3-His6 tagged
B13: T0263018B11 G26Y (VHH, name in Kabat numbering)
VHH: B1 VHH with E26Y
notes: FLAG3-His6 tagged
B14: T0263018B11 S30G (VHH, name in Kabat numbering)
VHH: B1 VHH with E26G, S30G
notes: FLAG3-His6 tagged
B15: T0263018B11 S31N (VHH, name in Kabat numbering)
VHH: B1 VHH with E26G, S31N
notes: FLAG3-His6 tagged
B16: T0263018B11 G26S (VHH, name in Kabat numbering)
VHH: B1 VHH with E26S
notes: FLAG3-His6 tagged
B17: T0263018B11 S30D (VHH, name in Kabat numbering)
VHH: B1 VHH with E26G, S30D
notes: FLAG3-His6 tagged
B18: T0263018B11 S31Q (VHH, name in Kabat numbering)
VHH: B1 VHH with E26G, S31Q
notes: FLAG3-His6 tagged
B19: T0263018B11 S30K (VHH, name in Kabat numbering)
VHH: B1 VHH with E26G, S30K
notes: FLAG3-His6 tagged
B20: T0263018B11 G55D (VHH, name in Kabat numbering)
VHH: B1 VHH with E26G, G56D
notes: FLAG3-His6 tagged
B21: T0263018B11 G26M (VHH, name in Kabat numbering)
VHH: B1 VHH with E26M
notes: FLAG3-His6 tagged
B22: T0263018B11 G26H (VHH, name in Kabat numbering)
VHH: B1 VHH with E26H
notes: FLAG3-His6 tagged
B23: T0263018B11 S31K (VHH, name in Kabat numbering)
VHH: B1 VHH with E26G, S31K
notes: FLAG3-His6 tagged
B24: T0263018B11 G54P (VHH, name in Kabat numbering)
VHH: B1 VHH with E26G, G55P
notes: FLAG3-His6 tagged

Substitutions are numbered along the chain they refer to.

The target of the first test is T1, human FcRn/b2M (human, UniProt P61769 21-119, biotinylated).
T1 construct: bought recombinant biotinylated protein (ACRO FCM-H82W4 or Immunitrack ITF01); also called hFcRn; hFcRn/hb2M
T1 sequence (chain, as listed by the source limits assumed, chain 1 of 2): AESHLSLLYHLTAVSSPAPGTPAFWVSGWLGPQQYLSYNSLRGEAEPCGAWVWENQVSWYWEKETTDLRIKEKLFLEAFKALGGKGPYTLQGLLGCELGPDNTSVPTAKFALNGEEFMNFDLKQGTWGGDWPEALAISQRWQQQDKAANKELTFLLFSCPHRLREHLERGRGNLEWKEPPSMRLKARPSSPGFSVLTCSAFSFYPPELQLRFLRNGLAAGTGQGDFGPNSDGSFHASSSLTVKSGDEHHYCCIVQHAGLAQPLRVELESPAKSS
T1 sequence (P61769 21-119 limits assumed, chain 2 of 2): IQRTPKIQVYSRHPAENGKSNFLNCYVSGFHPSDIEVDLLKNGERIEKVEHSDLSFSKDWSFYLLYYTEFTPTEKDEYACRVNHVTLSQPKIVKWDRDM
Description: SPR pH 6.0.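 Also: surface plasmon resonance kinetics at 25 °C, diluted periplasmic extracts injected over immobilized ligand surfaces, 120 s association then 600–3600 s dissociation, running buffer containing 150 mM NaCl.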
Description: (§1) All kinetic measurements have been performed on ProteOn XPR36 (BioRad Laboratories, Inc.), MASS-2 (Sierra sensors, Gmbh) or SPR-32 (Bruker Corporation). […] The phytip purified periplasmic extracts were diluted 1:10 in running buffer (CPA+150 mM NaCl+0.005% Tw20 at pH 5.5, pH 6.0 or pH 7.4) and injected over the ligand surfaces (association: 120 s at 45 μL/min; dissociation: 600s-3600 s at 45 μL/min). Experiments were carried out at 25° C.
One may read the koff as the rate constant with which the complex falls apart. High values mean a short-lived complex, low ones a long-lived complex. B1: the koff was determined as 0.00095 s⁻¹.
The molecule B2 showed a koff of 0.00088 s⁻¹.
As to B3, the koff was 0.00081 s⁻¹.
The molecule B4 registered a koff of 0.0019 s⁻¹.
B5 registered a koff of 0.0016 s⁻¹.
B6: the koff worked out at 0.0019 s⁻¹.
Molecule B7 yielded a koff of 0.015 s⁻¹.
B8 gave a koff of 0.00065 s⁻¹.
B9: the koff turned out to be 0.00052 s⁻¹.
B10: the koff was 0.0016 s⁻¹.
Still for that read-out and setting: the value for B11 was 0.0016 s⁻¹.
The molecule B12 registered a dissociation rate constant (koff) of 0.00085 s⁻¹. Against the preceding molecule, the koff is about 1.9-fold lower.
Consider B13, for which the koff was determined as 0.00065 s⁻¹.
As to B14, the koff was determined as 0.00066 s⁻¹.
B15: the koff was 0.0034 s⁻¹.
Same read-out and setting: to B16 belongs 0.00091 s⁻¹; to B17, 0.0032 s⁻¹.
B18 displayed a koff of 0.00038 s⁻¹.
Turning to B19, the koff was found to be 0.0078 s⁻¹.
In turn, B20 came in with a koff of 0.0017 s⁻¹. This koff lies about 4.6-fold lower than the previous one.
On to B21, for which the koff stood at 0.00063 s⁻¹.
Same read-out and setting: to B22 belongs 0.00055 s⁻¹; to B23, 0.0013 s⁻¹; to B24, 0.0016 s⁻¹.

In a further test the target is T2, cyno FcRn/b2M (cyno, UniProt Q8SPV9 24-297; Q8SPW0 21-119, biotinylated).
T2 construct: bought recombinant biotinylated protein (Immunitrack ITF05 or ACRO FCM-C82W5); also called cFcRn; cFcRn/cb2M
T2 sequence (Q8SPV9 24-297 limits assumed, chain 1 of 2): as the sequence (chain, as listed by the source limits assumed, chain 1 of 2) above, with N39D, E44Q, G99S, S189G, S190N, L217M, S269T counted along it
T2 sequence (Q8SPW0 21-119 limits assumed, chain 2 of 2): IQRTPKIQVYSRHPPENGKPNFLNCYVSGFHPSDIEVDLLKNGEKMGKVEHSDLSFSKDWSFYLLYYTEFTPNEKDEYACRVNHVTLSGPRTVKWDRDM
Briefly: SPR pH 6.0.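 Also: surface plasmon resonance kinetics at 25 °C, diluted periplasmic extracts injected over immobilized ligand surfaces, 120 s association then 600–3600 s dissociation, running buffer containing 150 mM NaCl.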
Description: as §1
B1 registered a koff of 0.00081 s⁻¹.
As for B2, the koff was 0.00073 s⁻¹.
In the case of B3, the koff was 0.00037 s⁻¹.
The molecule B4 showed a koff of 0.0016 s⁻¹.
Turning to B5, the koff is 0.0014 s⁻¹. This koff and that of the molecule before are within 1.5-fold of each other.
The same measure, in the same setting: the value for B6 was 0.0013 s⁻¹; that for B7 was 0.013 s⁻¹.
B8 gave a koff of 1.3e-05 s⁻¹.
Molecule B9 came in with a koff of 0.0003 s⁻¹.
Same read-out and setting: to B10 belongs 0.0016 s⁻¹.
In the case of B11, the koff was determined as 0.0017 s⁻¹. The koff values of the last two molecules are within 1.5-fold of each other.
Turning to B12, the off-rate (koff) came out at 0.00055 s⁻¹.
Molecule B13 yielded a koff of 0.00055 s⁻¹.
As for B14, the koff came to 0.00054 s⁻¹.
The same measure, in the same setting: the value for B15 was 0.0018 s⁻¹.
B16: the koff was 0.00079 s⁻¹.
On to B17, for which the koff was 0.0026 s⁻¹.
Same read-out and setting: the value for B18 was 0.00016 s⁻¹.
B19 gave a koff of 0.003 s⁻¹.
Regarding B20, the koff stood at 0.0013 s⁻¹.
B21 came in with a koff of 7.1e-05 s⁻¹.
Same read-out and setting: the value for B22 was 0.00016 s⁻¹.
Still for that read-out and setting: the value for B23 was 0.0011 s⁻¹.
For the molecule B24, the koff was found to be 0.0017 s⁻¹.

For another test, the target named is T1, human FcRn/b2M. Briefly: SPR pH 7.4.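 Also: surface plasmon resonance kinetics, periplasmic extracts diluted 1:10 flowed over immobilized target at 25 °C, 120 s association then 600–3600 s dissociation, buffer with 150 mM NaCl.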
Description: as §1
Consider B1, for which the off-rate (koff) came to 0.042 s⁻¹.
B2 returned a koff of 0.043 s⁻¹.
The same measure, in the same setting: the value for B3 was 0.042 s⁻¹; that for B4 was 0.071 s⁻¹; that for B5 was 0.059 s⁻¹.
Same read-out and setting: to B6 belongs 0.082 s⁻¹.
For B7, the dissociation rate constant (koff) came to 0.62 s⁻¹.
B8: the koff worked out at 0.034 s⁻¹.
As to B9, the koff came to 0.024 s⁻¹. This koff and that of the molecule before are within 1.5-fold of each other.
B10 had a koff of 0.046 s⁻¹.
Take B11: the koff amounted to 0.041 s⁻¹.
Molecule B12 came in with a koff of 0.035 s⁻¹.
On the same count and under the same terms, to B13 belongs 0.027 s⁻¹; to B14, 0.025 s⁻¹.
In the case of B15, the koff came out at 0.17 s⁻¹.
The molecule B16 displayed a koff of 0.047 s⁻¹. This koff lies about 3.6-fold lower than the previous one.
B17 showed a koff of 0.13 s⁻¹.
On to B18, for which the koff is 0.017 s⁻¹.
Still for that read-out and setting: to B19 belongs 0.069 s⁻¹.
For B20, the koff was found to be 0.07 s⁻¹.
Take B21: the koff stood at 0.033 s⁻¹.
For B22, the koff was 0.034 s⁻¹.
B23 showed a koff of 0.048 s⁻¹.
Same read-out and setting: the value for B24 was 0.033 s⁻¹.

In the next test the target is T2, cyno FcRn/b2M. Description: SPR pH 7.4.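 Also: surface plasmon resonance kinetics, periplasmic extracts diluted 1:10 flowed over immobilized target at 25 °C, 120 s association then 600–3600 s dissociation, buffer with 150 mM NaCl.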
Description: as §1
In turn, B1 yielded a koff of 0.05 s⁻¹.
Molecule B2 showed a koff of 0.043 s⁻¹.
B3: the koff amounted to 0.032 s⁻¹.
For the molecule B4, the koff is 0.073 s⁻¹. Compared with the last molecule, the koff is about 2.3-fold higher.
Turning to B5, the koff was 0.062 s⁻¹.
Molecule B6 registered a koff of 0.061 s⁻¹.
B7 came in with a koff of 0.51 s⁻¹.
The same measure, in the same setting: to B8 belongs 0.026 s⁻¹; to B9, 0.018 s⁻¹; to B10, 0.062 s⁻¹.
B11 registered a koff of 0.06 s⁻¹.
With B12, the off-rate constant (koff) stood at 0.026 s⁻¹.
B13 gave a dissociation rate constant (koff) of 0.028 s⁻¹.
The same measure, in the same setting: the value for B14 was 0.019 s⁻¹.
Turning to B15, the koff is 0.12 s⁻¹.
B16 had a koff of 0.053 s⁻¹.
In turn, B17 came in with a koff of 0.17 s⁻¹.
Same read-out and setting: the value for B18 was 0.013 s⁻¹.
The same measure, in the same setting: the value for B19 was 0.055 s⁻¹.
With B20, the koff turned out to be 0.07 s⁻¹.
For the molecule B21, the koff is 0.025 s⁻¹. Against the preceding molecule, the koff is about 2.8-fold lower.
B22 came in with a koff of 0.026 s⁻¹.
B23 showed an off-rate constant (koff) of 0.044 s⁻¹.
On to B24, for which the koff amounted to 0.041 s⁻¹.

For the next test, the target named is T1, human FcRn/b2M. Description: SPR off-rate; pH 7.4 vs pH 6.0.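 Also: surface plasmon resonance with diluted periplasmic extracts flowed over ligand surfaces, 120 s association and 600–3600 s dissociation at 25 °C, running buffer containing 150 mM NaCl.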
Description: as §1
Take B1: the “kd ratio pH 7.4/6.0” value stood at 44.
As to B2, the “kd ratio pH 7.4/6.0” value was determined as 49.
B3: the “kd ratio pH 7.4/6.0” value came to 53.
Same read-out and setting: the value for B4 was 37.
Take B5: the “kd ratio pH 7.4/6.0” value stood at 37.
For the molecule B6, the “kd ratio pH 7.4/6.0” value came out at 42.
As for B7, the “kd ratio pH 7.4/6.0” value stood at 42.
The same measure, in the same setting: to B8 belongs 53.
For the molecule B9, the “kd ratio pH 7.4/6.0” value turned out to be 46.
Regarding B10, the “kd ratio pH 7.4/6.0” value was determined as 29.
Regarding B11, the “kd ratio pH 7.4/6.0” value is 26.
In the case of B12, the “kd ratio pH 7.4/6.0” value was determined as 42.
In the case of B13, the “kd ratio pH 7.4/6.0” value stood at 42.
For B14, the “kd ratio pH 7.4/6.0” value is 38.
On to B15, for which the “kd ratio pH 7.4/6.0” value was 50.
In the case of B16, the “kd ratio pH 7.4/6.0” value stood at 52.
Turning to B17, the “kd ratio pH 7.4/6.0” value came to 41.
As for B18, the “kd ratio pH 7.4/6.0” value is 43.
As for B19, the “kd ratio pH 7.4/6.0” value is 9.
Turning to B20, the “kd ratio pH 7.4/6.0” value was 41.
For B21, the “kd ratio pH 7.4/6.0” value stood at 52.
In the case of B22, the “kd ratio pH 7.4/6.0” value is 62.
As to B23, the “kd ratio pH 7.4/6.0” value was determined as 37.
With B24, the “kd ratio pH 7.4/6.0” value came to 21.

In a further test the target is T2, cyno FcRn/b2M. Description: SPR off-rate; pH 7.4 vs pH 6.0.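 Also: surface plasmon resonance with diluted periplasmic extracts flowed over ligand surfaces, 120 s association and 600–3600 s dissociation at 25 °C, running buffer containing 150 mM NaCl.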
Description: as §1
On to B1, for which the “kd ratio pH 7.4/6.0” value was determined as 62.
For the molecule B2, the “kd ratio pH 7.4/6.0” value is 59.
B3: the “kd ratio pH 7.4/6.0” value stood at 86.
On to B4, for which the “kd ratio pH 7.4/6.0” value was 46.
With B5, the “kd ratio pH 7.4/6.0” value came to 44.
The same measure, in the same setting: the value for B6 was 46.
With B7, the “kd ratio pH 7.4/6.0” value was determined as 41.
Turning to B8, the “kd ratio pH 7.4/6.0” value worked out at 2010.
Turning to B9, the “kd ratio pH 7.4/6.0” value turned out to be 60.
As to B10, the “kd ratio pH 7.4/6.0” value was found to be 39.
The same measure, in the same setting: the value for B11 was 35; that for B12 was 47; that for B13 was 51.
As for B14, the “kd ratio pH 7.4/6.0” value turned out to be 35.
For B15, the “kd ratio pH 7.4/6.0” value amounted to 69.
Regarding B16, the “kd ratio pH 7.4/6.0” value amounted to 67.
As to B17, the “kd ratio pH 7.4/6.0” value was determined as 65.
Turning to B18, the “kd ratio pH 7.4/6.0” value is 79.
In the case of B19, the “kd ratio pH 7.4/6.0” value amounted to 18.
On the same count and under the same terms, to B20 belongs 54; to B21, 349.
The same measure, in the same setting: the value for B22 was 159; that for B23 was 40.
With B24, the “kd ratio pH 7.4/6.0” value was found to be 24.

Source of the values: patent US20240132624A1 (Ablynx, published 2024).
